Assay results taken from the MegaScale stability set (Tsuboyama et al. 2023).

B1: EEHEE_rd4_0647 (parent)
chain: MQVTWGNVTVTFSNPEEAKKYAEKVARKLGGQVELHNGQFRIK

Variants of: B1
Experiment: folding stability dG (cDNA display proteolysis); higher = more stable
Conditions: PBS, room temperature

Folding stability dG [kcal/mol], by site and new letter:
L29: P 0.143, S 2.02, Q 1.58, V 2.77, I 2.96, Y 2.63, K 1.36, G 1.17, H 2.06, A 1.76, N 1.6, E 1.33, W 2.5, C 2.92, D 0.761, F 2.66, T 2.65
Q32: P 1.33, D 2.11, R 2.89, N 2.4, I 3.27, H 2.89, L 2.74, K 2.92, G 1.77, Y 3.33, E 2.76, A 2.52, M 2.78, S 3, T 3.35, C 3.47, V 3.29, W 3.18, F 3.08
A26: T 0.93, M 1.2, I 1.35, P -0.236, G 1.38, Y 0.807, D 0.03, H 0.769, Q 1.06, R 1.38, C 2.08, N 0.851, E 0.315, F 1, S 1.71, V 1.66, K 0.937, W 1.17, L 1.34
L35: A 2.09, C 2.78, D 1.84
V25: F 1.79, T 1.93, M 2.95, K 1.68, W 2.69, R 1.33, D 0.13, G 0.217, P -0.34, I 3.11, Y 1.48, S 0.981, N 0.417, E 0.927, H 1.01, Q 1.87, L 2.95, A 1.61
K19: L 3.02, I 2.42, V 2.08, M 2.66, S 2.12, T 1.62, W 2.88, Y 2.94, D 0.816, N 1.71, H 2.34, Q 2.61, P 0.106, E 2.21, F 2.94, G 1.83, A 2.53
G30: Q 2.12, F 1.9, W 1.74, H 2.53, N 2.63, P 1.04, L 1.85, S 1.98, Y 1.81, D 1.91, R 2.41, E 1.59, V 1.45, A 1.88, K 2.4, M 2.05, I 1.34, T 1.34, C 3.02
E34: P 0.384, T 2.44, Q 2.25, H 2.17, W 2.2, M 2.22, Y 2.78, V 2.81, A 1.94, K 1.73, S 2.23, D 2.11, G 1.41, F 2.6, N 1.6, I 2.83, R 1.78, L 2.21
K20: F 2.41, Y 2.43, M 2.75, G 2.13, N 2.58, E 2.73, H 2.57, A 2.98, P 0.849, I 2.77, V 2.71, T 2.62, W 2.67, R 2.96, L 2.86, Q 2.72, S 2.64, D 2.54
K28: N 2.29, T 2.54, H 2.9, V 2.87, F 2.97, W 3.23, L 3.15, R 2.98, G 2.01, D 2.47, M 3.09, Q 2.79, E 2.72, C 3.7, A 3.04, S 2.51, I 3.18, P 0.676, Y 2.97
